Molecular target: taxol-stabilized microtubules (bovine brain tubulin) (bovine) (UniProt Q6B856)
Assay: co-sedimentation

UniProt Q6B856, sequence (Q6B856 whole entry, looked up): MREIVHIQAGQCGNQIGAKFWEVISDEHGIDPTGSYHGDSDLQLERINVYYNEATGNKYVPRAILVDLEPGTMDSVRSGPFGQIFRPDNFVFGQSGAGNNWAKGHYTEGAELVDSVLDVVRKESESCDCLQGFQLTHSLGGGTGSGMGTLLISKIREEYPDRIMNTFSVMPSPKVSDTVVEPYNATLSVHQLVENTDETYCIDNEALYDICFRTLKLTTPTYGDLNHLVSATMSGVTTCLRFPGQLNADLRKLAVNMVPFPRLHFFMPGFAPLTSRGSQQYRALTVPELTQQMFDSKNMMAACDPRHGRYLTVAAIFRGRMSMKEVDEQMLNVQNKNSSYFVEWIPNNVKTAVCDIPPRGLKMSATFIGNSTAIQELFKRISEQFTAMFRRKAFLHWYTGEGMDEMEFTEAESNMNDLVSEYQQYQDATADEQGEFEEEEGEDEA

Substance: CHO1 antigen, polypeptide of ~100 kD (HeLa cytoplasm) (from UniProt Q02241-2 1-856) (natural protein)
- percent extracted from microtubules by 0.5 M NaCl: 60%

Substance: CHO1 antigen, polypeptide of ~115 kD (HeLa cytoplasm) (from UniProt Q02241 1-960) (natural protein)
- percent extracted from microtubules by 0.5 M NaCl: 60%

From article PMC2116221
